The results in this text go back to patent publication US20040018972A1 (TRILLIUM THERAPEUTICS, published 2004).

Test [1] deals with T1, CD14 on mouse dendritic cells (mouse, UniProt P10810 16-336).
T1 construct: whole, on cells
T1 sequence (looked up): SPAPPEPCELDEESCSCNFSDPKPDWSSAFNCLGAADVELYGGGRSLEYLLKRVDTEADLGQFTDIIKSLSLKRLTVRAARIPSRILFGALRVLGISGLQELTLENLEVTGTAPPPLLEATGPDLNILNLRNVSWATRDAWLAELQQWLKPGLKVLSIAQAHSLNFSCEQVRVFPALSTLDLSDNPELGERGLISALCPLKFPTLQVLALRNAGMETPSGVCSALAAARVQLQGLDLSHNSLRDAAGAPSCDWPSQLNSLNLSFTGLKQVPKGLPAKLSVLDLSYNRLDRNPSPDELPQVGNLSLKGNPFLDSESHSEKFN
Nature of the test: co-capping on DC: anti-CD14 staining reduced after capping of MD-1 with SH1.2.47 (FACS). As to the method: (§1) FIG. 3 is FACS analysis of the effect of pretreatment of DC with anti-MD-1 antibody on cell surface expression of molecules on dendritic cells. Cells in the columns shown were preincubated (60 minutes at 4° C.) in medium, rat anti-DC26, or anti-MD-1 (SH1.2.47), prior to washing and incubation at 37° C. with anti-rat Ig. Thereafter cells were stained with different mAbs as in FIG. 2.

Test [2] addresses T2, OX-2 (CD200) on mouse dendritic cells (mouse, UniProt O54901 31-278).
T2 construct: whole, on cells
T2 sequence (looked up): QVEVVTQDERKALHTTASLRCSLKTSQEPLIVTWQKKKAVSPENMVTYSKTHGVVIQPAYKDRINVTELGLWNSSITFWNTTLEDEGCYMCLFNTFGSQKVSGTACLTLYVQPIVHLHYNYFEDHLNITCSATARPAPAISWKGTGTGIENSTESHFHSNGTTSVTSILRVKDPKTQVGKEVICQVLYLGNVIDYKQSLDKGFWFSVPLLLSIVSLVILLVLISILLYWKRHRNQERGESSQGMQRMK
The test is described as follows: co-capping: DC pre-incubated with SH1.2.47 and anti-rat Ig at 37 C, then FACS staining of the other surface molecules. As to the method: as §1

The target of test [3] is T3, CD86 (B7-2) on mouse dendritic cells (mouse, UniProt P42082 24-309).
T3 construct: whole, on cells
T3 sequence (looked up): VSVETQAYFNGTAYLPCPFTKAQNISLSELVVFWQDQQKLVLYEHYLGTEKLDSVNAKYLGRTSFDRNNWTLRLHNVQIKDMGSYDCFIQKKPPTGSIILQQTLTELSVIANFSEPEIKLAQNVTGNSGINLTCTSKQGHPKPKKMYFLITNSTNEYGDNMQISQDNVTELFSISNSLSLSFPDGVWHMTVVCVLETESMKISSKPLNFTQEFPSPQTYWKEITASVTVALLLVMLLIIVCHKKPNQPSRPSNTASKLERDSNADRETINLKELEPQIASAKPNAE
Described as above. As to the method: as §1

Test [4] deals with T4, DEC205 on mouse dendritic cells (mouse, UniProt Q60767 28-1723).
T4 construct: whole, on cells
The test is described as above. As to the method: as §1

In test [5] the target is T5, CD80 (B7-1) on mouse dendritic cells (mouse, UniProt Q00609 38-306).
T5 construct: whole, on cells
T5 sequence (looked up): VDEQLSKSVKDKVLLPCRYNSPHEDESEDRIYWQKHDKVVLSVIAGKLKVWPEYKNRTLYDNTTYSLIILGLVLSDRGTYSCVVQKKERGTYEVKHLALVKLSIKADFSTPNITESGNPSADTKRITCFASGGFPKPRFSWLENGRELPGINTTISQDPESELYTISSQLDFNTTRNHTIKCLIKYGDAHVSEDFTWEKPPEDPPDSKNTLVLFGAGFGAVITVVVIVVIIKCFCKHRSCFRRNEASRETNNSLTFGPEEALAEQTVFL
The test is described as above. As to the method:
as §1

T4 sequence (Q60767 28-1723): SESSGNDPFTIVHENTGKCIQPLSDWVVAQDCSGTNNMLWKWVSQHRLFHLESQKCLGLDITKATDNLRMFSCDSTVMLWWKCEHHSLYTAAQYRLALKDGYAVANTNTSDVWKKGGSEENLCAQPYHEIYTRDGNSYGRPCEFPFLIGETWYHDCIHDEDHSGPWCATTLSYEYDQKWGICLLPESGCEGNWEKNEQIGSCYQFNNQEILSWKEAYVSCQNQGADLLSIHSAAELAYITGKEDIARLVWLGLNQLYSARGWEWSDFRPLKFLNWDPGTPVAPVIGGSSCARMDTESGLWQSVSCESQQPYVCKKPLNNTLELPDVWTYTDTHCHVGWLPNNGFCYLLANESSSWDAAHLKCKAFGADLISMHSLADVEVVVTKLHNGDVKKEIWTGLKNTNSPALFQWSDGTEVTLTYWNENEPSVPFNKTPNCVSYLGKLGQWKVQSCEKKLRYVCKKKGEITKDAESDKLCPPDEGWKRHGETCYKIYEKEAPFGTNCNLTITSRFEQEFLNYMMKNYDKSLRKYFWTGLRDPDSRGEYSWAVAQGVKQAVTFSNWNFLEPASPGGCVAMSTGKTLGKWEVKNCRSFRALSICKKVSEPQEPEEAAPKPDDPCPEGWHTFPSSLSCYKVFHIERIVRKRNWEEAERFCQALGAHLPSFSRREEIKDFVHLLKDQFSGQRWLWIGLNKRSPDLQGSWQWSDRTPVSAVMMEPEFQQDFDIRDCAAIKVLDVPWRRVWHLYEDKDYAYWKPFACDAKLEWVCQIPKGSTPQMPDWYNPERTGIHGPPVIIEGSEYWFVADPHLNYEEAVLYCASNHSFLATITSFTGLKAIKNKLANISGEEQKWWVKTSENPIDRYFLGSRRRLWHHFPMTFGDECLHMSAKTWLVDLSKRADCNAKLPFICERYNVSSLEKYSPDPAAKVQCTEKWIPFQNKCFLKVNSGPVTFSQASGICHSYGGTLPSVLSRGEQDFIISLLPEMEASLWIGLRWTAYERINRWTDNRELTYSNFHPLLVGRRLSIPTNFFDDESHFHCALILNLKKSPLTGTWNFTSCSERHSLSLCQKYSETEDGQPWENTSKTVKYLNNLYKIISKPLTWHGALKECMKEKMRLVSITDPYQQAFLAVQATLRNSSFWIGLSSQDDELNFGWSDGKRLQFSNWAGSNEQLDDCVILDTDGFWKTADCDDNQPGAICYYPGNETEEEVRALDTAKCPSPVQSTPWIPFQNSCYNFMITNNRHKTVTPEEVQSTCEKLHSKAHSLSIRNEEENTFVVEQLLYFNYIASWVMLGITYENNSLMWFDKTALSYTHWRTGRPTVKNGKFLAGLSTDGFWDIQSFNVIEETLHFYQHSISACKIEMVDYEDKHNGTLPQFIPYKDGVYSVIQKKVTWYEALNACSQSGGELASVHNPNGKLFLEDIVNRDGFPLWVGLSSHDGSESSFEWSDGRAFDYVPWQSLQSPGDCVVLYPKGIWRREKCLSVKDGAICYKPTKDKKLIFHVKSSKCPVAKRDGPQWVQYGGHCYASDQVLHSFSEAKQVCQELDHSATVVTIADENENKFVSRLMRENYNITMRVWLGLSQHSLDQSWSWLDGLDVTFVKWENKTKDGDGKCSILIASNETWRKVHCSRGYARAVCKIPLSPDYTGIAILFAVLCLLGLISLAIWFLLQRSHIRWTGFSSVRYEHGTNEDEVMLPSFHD

B1: murine MD-1 (other, UniProt O88188 20-162, looked up)
chain: DHGSENGWPKHTACNSGGLEVVYQSCDPLQDFGLSIDQCSKQIQSNLNIRFGIILRQDIRKLFLDITLMAKGSSILNYSYPLCEEDQPKFSFCGRRKGEQIYYAGPVNNPGLDVPQGEYQLLLELYNENRATVACANATVTSS
notes: whole, on cells; also called mouse MD-1
Consider B1, for which the binding result is reported as “binds” in test [1]; “no binding” in test [2]; “no binding” in test [3]; “no binding” in test [4]; “no binding” in test [5].
